{"source": "patent US20190177370A1", "about": "(TOKYO UNIVERSITY OF PHARMACY AND LIFE SCIENCES, published 2019)", "binders": {"B1": {"name": "PDM-52 (peptide)", "peptide": "{m‑dPEG(4)″-Ahx}-WYIEWIKIQI[Nva]SKLRL-NH2", "SMILES": "CCC[C@H](NC(=O)[C@@H](NC(=O)[C@H](CCC(N)=O)NC(=O)[C@@H](NC(=O)[C@H](CCCCN)NC(=O)[C@@H](NC(=O)[C@H](Cc1c[nH]c2ccccc12)NC(=O)[C@H](CCC(=O)O)NC(=O)[C@@H](NC(=O)[C@H](Cc1ccc(O)cc1)NC(=O)[C@H](Cc1c[nH]c2ccccc12)NC(=O)CCCCCNC(=O)CCOCCOCCOCCOC)[C@@H](C)CC)[C@@H](C)CC)[C@@H](C)CC)[C@@H](C)CC)C(=O)N[C@@H](CO)C(=O)N[C@@H](CCCCN)C(=O)N[C@@H](CC(C)C)C(=O)N[C@@H](CCCNC(=N)N)C(=O)N[C@@H](CC(C)C)C(N)=O"}, "B2": {"name": "nPDM-64 (peptide)", "peptide": "H-WYIRWIK[Chg]QIWSKLRL-NH2", "SMILES": "CC[C@H](C)[C@H](NC(=O)[C@H](CCC(N)=O)NC(=O)[C@@H](NC(=O)[C@H](CCCCN)NC(=O)[C@@H](NC(=O)[C@H](Cc1c[nH]c2ccccc12)NC(=O)[C@H](CCCNC(=N)N)NC(=O)[C@@H](NC(=O)[C@H](Cc1ccc(O)cc1)NC(=O)[C@@H](N)Cc1c[nH]c2ccccc12)[C@@H](C)CC)[C@@H](C)CC)C1CCCCC1)C(=O)N[C@@H](Cc1c[nH]c2ccccc12)C(=O)N[C@@H](CO)C(=O)N[C@@H](CCCCN)C(=O)N[C@@H](CC(C)C)C(=O)N[C@@H](CCCNC(=N)N)C(=O)N[C@@H](CC(C)C)C(N)=O"}, "B3": {"name": "PDM-44 (peptide)", "peptide": "{m‑dPEG(4)″-Ahx}-WYIE[2Nal]IKIQIISKLRL-NH2", "SMILES": "CC[C@H](C)[C@H](NC(=O)[C@H](Cc1ccc(O)cc1)NC(=O)[C@H](Cc1c[nH]c2ccccc12)NC(=O)CCCCCNC(=O)CCOCCOCCOCCOC)C(=O)N[C@@H](CCC(=O)O)C(=O)N[C@@H](Cc1ccc2ccccc2c1)C(=O)N[C@H](C(=O)N[C@@H](CCCCN)C(=O)N[C@H](C(=O)N[C@@H](CCC(N)=O)C(=O)N[C@H](C(=O)N[C@H](C(=O)N[C@@H](CO)C(=O)N[C@@H](CCCCN)C(=O)N[C@@H](CC(C)C)C(=O)N[C@@H](CCCNC(=N)N)C(=O)N[C@@H](CC(C)C)C(N)=O)[C@@H](C)CC)[C@@H](C)CC)[C@@H](C)CC)[C@@H](C)CC"}, "B4": {"name": "PDM-39 (peptide)", "peptide": "{m‑dPEG(4)″-Ahx}-W[Cha]IEWIKIQIISKLRL-NH2", "SMILES": "CC[C@H](C)[C@H](NC(=O)[C@H](CC1CCCCC1)NC(=O)[C@H](Cc1c[nH]c2ccccc12)NC(=O)CCCCCNC(=O)CCOCCOCCOCCOC)C(=O)N[C@@H](CCC(=O)O)C(=O)N[C@@H](Cc1c[nH]c2ccccc12)C(=O)N[C@H](C(=O)N[C@@H](CCCCN)C(=O)N[C@H](C(=O)N[C@@H](CCC(N)=O)C(=O)N[C@H](C(=O)N[C@H](C(=O)N[C@@H](CO)C(=O)N[C@@H](CCCCN)C(=O)N[C@@H](CC(C)C)C(=O)N[C@@H](CCCNC(=N)N)C(=O)N[C@@H](CC(C)C)C(N)=O)[C@@H](C)CC)[C@@H](C)CC)[C@@H](C)CC)[C@@H](C)CC"}, "B5": {"name": "PDM-38 (peptide)", "peptide": "{m‑dPEG(4)″-Ahx}-W[2Nal]IEWIKIQIISKLRL-NH2", "SMILES": "CC[C@H](C)[C@H](NC(=O)[C@H](Cc1ccc2ccccc2c1)NC(=O)[C@H](Cc1c[nH]c2ccccc12)NC(=O)CCCCCNC(=O)CCOCCOCCOCCOC)C(=O)N[C@@H](CCC(=O)O)C(=O)N[C@@H](Cc1c[nH]c2ccccc12)C(=O)N[C@H](C(=O)N[C@@H](CCCCN)C(=O)N[C@H](C(=O)N[C@@H](CCC(N)=O)C(=O)N[C@H](C(=O)N[C@H](C(=O)N[C@@H](CO)C(=O)N[C@@H](CCCCN)C(=O)N[C@@H](CC(C)C)C(=O)N[C@@H](CCCNC(=N)N)C(=O)N[C@@H](CC(C)C)C(N)=O)[C@@H](C)CC)[C@@H](C)CC)[C@@H](C)CC)[C@@H](C)CC"}, "B6": {"name": "PDM-53 (peptide)", "peptide": "{m‑dPEG(4)″-Ahx}-WYIEWIKIQI[Chg]SKLRL-NH2", "SMILES": "CC[C@H](C)[C@H](NC(=O)[C@H](Cc1ccc(O)cc1)NC(=O)[C@H](Cc1c[nH]c2ccccc12)NC(=O)CCCCCNC(=O)CCOCCOCCOCCOC)C(=O)N[C@@H](CCC(=O)O)C(=O)N[C@@H](Cc1c[nH]c2ccccc12)C(=O)N[C@H](C(=O)N[C@@H](CCCCN)C(=O)N[C@H](C(=O)N[C@@H](CCC(N)=O)C(=O)N[C@H](C(=O)N[C@H](C(=O)N[C@@H](CO)C(=O)N[C@@H](CCCCN)C(=O)N[C@@H](CC(C)C)C(=O)N[C@@H](CCCNC(=N)N)C(=O)N[C@@H](CC(C)C)C(N)=O)C1CCCCC1)[C@@H](C)CC)[C@@H](C)CC)[C@@H](C)CC"}}, "note": "Square brackets hold non-standard residues; d marks the D form. Primed or numbered codes have the meaning given here. * marks the point of attachment. m‑dPEG(4)″ = m-dPEG(4) acid, coupled to Acp (R^111 group of Formula (4)), COCCOCCOCCOCCC(=O)*; m‑dPEG(4) = m-dPEG(4) acid, coupled to Acp, with Acp forms R^111 of Formula (4); 2Nal = N[C@@H](Cc1ccc2ccccc2c1)C(=O)O; Cha = N[C@@H](CC1CCCCC1)C(=O)O; Chg = N[C@H](C(=O)O)C1CCCCC1; Nva = CCC[C@H](N)C(=O)O; Ahx = NCCCCCC(=O)O", "data": [{"target": "T1, myostatin (UniProt O14793 267-375, limits assumed)", "T1 sequence (looked up)": "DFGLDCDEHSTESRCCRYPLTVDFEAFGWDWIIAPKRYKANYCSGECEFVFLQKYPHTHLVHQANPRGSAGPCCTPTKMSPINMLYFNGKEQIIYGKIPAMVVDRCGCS", "assay": "cell-based or functional assay", "units": {"myostatin inhibitory activity at 1 µM (luciferase reporter assay)": "% inhibition", "myostatin inhibitory activity at 0.3 µM (luciferase reporter assay)": "% inhibition"}, "values": [{"binder": "{m‑dPEG(4)-Ahx}-WYIEYIKIQIISKIRL-NH2", "note": "[PDM-50]", "myostatin inhibitory activity at 1 µM (luciferase reporter assay)": "≥ 40"}, {"binder": "B1", "myostatin inhibitory activity at 1 µM (luciferase reporter assay)": "≥ 40"}, {"binder": "H-WYIQWIKIQIWSKLRL-NH2", "note": "[nPDM-55/E31Q]", "myostatin inhibitory activity at 0.3 µM (luciferase reporter assay)": "≥ 40"}, {"binder": "B2", "myostatin inhibitory activity at 0.3 µM (luciferase reporter assay)": "≥ 40", "myostatin inhibitory activity at 1 µM (luciferase reporter assay)": "≥ 40"}, {"binder": "B3", "myostatin inhibitory activity at 1 µM (luciferase reporter assay)": "≥ 40"}, {"binder": "{m‑dPEG(4)-Ahx}-WYIEFIKIQIISKIRL-NH2", "note": "[PDM-49]", "myostatin inhibitory activity at 1 µM (luciferase reporter assay)": "≥ 40"}, {"binder": "{m‑dPEG(4)-Ahx}-WYIEWIKIQIWSKLRL-NH2", "note": "[PDM-55]", "myostatin inhibitory activity at 0.3 µM (luciferase reporter assay)": "≥ 40", "myostatin inhibitory activity at 1 µM (luciferase reporter assay)": "≥ 40"}, {"binder": "{m‑dPEG(4)-Ahx}-WYIESIKIQIISKLRL-NH2", "note": "[PDM-46]", "myostatin inhibitory activity at 1 µM (luciferase reporter assay)": "≥ 40"}, {"binder": "B4", "myostatin inhibitory activity at 1 µM (luciferase reporter assay)": "≥ 40"}, {"binder": "B5", "myostatin inhibitory activity at 1 µM (luciferase reporter assay)": "≥ 40"}, {"binder": "{m‑dPEG(4)-Ahx}-WFIEWIKIQIISKLRL-NH2", "note": "[PDM-37]", "myostatin inhibitory activity at 1 µM (luciferase reporter assay)": "≥ 40"}, {"binder": "{m‑dPEG(4)-Ahx}-WSIEWIKIQIISKLRL-NH2", "note": "[PDM-43]", "myostatin inhibitory activity at 1 µM (luciferase reporter assay)": "≥ 40"}, {"binder": "{m‑dPEG(4)-Ahx}-WYIELIKIQIISKLRL-NH2", "note": "[PDM-45]", "myostatin inhibitory activity at 1 µM (luciferase reporter assay)": "≥ 40"}, {"binder": "{m‑dPEG(4)-Ahx}-WYIEWIKIQIYSKLRL-NH2", "note": "[PDM-56]", "myostatin inhibitory activity at 1 µM (luciferase reporter assay)": "≥ 40"}, {"binder": "H-WYIESIKIQIISKLRL-NH2", "note": "[nPDM-46]", "myostatin inhibitory activity at 1 µM (luciferase reporter assay)": "≥ 40"}, {"binder": "{m‑dPEG(4)-Ahx}-LYIEWIKIQIISKLRL-NH2", "note": "[PDM-34]", "myostatin inhibitory activity at 1 µM (luciferase reporter assay)": "≥ 40"}, {"binder": "B6", "myostatin inhibitory activity at 1 µM (luciferase reporter assay)": "≥ 40"}, {"binder": "{m‑dPEG(4)-Ahx}-YWIEWIKIQIISKLRL-NH2", "note": "[PDM-28]", "myostatin inhibitory activity at 1 µM (luciferase reporter assay)": "≥ 40"}, {"binder": "{m‑dPEG(4)-Ahx}-WYIEHIKIQIISKIRL-NH2", "note": "[PDM-51]", "myostatin inhibitory activity at 1 µM (luciferase reporter assay)": "≥ 40"}, {"binder": "H-WYIEWIKIQIWSKLRL-NH2", "note": "[nPDM-55]", "myostatin inhibitory activity at 0.3 µM (luciferase reporter assay)": "≥ 40", "myostatin inhibitory activity at 1 µM (luciferase reporter assay)": "≥ 40"}, {"binder": "{m‑dPEG(4)-Ahx}-WRIESIKIQIISKLRL-NH2", "note": "[PDM-62]", "myostatin inhibitory activity at 1 µM (luciferase reporter assay)": "≥ 40"}, {"binder": "{m‑dPEG(4)-Ahx}-WYIESIKIQIWSKLRL-NH2", "note": "[PDM-63]", "myostatin inhibitory activity at 0.3 µM (luciferase reporter assay)": "≥ 40", "myostatin inhibitory activity at 1 µM (luciferase reporter assay)": "≥ 40"}, {"binder": "H-WYIRWIKIQIWSKLRL-NH2", "note": "[nPDM-55/E31R]", "myostatin inhibitory activity at 0.3 µM (luciferase reporter assay)": "≥ 40"}, {"binder": "{m‑dPEG(4)-Ahx}-WRIEWIKIQIISKLRL-NH2", "note": "[PDM-42]", "myostatin inhibitory activity at 1 µM (luciferase reporter assay)": "≥ 40"}, {"binder": "{m‑dPEG(4)-Ahx}-HYIEWIKIQIISKLRL-NH2", "note": "[PDM-35]", "myostatin inhibitory activity at 1 µM (luciferase reporter assay)": "≥ 40"}, {"binder": "H-WYIKWIKIQIWSKLRL-NH2", "note": "[nPDM-55/E31K]", "myostatin inhibitory activity at 0.3 µM (luciferase reporter assay)": "≥ 40"}, {"binder": "{m‑dPEG(4)-Ahx}-YYIESIKIQIISKLRL-NH2", "note": "[PDM-61]", "myostatin inhibitory activity at 1 µM (luciferase reporter assay)": "≥ 40"}, {"binder": "H-WYIESIKIQIWSKLRL-NH2", "note": "[nPDM-63]", "myostatin inhibitory activity at 1 µM (luciferase reporter assay)": "≥ 40"}, {"binder": "{m‑dPEG(4)-Ahx}-WHIEWIKIQIISKLRL-NH2", "note": "[PDM-41]", "myostatin inhibitory activity at 1 µM (luciferase reporter assay)": "≥ 40"}, {"binder": "{m‑dPEG(4)-Ahx}-WYIERIKIQIISKLRL-NH2", "note": "[PDM-47]", "myostatin inhibitory activity at 1 µM (luciferase reporter assay)": "≥ 40"}, {"binder": "{m‑dPEG(4)-Ahx}-WYIEWIKIQIFSKLRL-NH2", "note": "[PDM-54]", "myostatin inhibitory activity at 1 µM (luciferase reporter assay)": "≥ 40"}, {"binder": "{m‑dPEG(4)-Ahx}-WLIEWIKIQIISKLRL-NH2", "note": "[PDM-40]", "myostatin inhibitory activity at 1 µM (luciferase reporter assay)": "≥ 40"}]}]}
